Data reported in PMC6262623, “The Intermolecular Interaction of Ephexin4 Leads to Autoinhibition by Impeding Binding of RhoG” (Cells, 2018).

Columns and labels:
[1] = molecular target: T1, FLAG-tagged wild-type Ephexin4 (murine, UniProt Q3U5C8 1-713); assay: cell-based or functional assay
T1 sequence (looked up): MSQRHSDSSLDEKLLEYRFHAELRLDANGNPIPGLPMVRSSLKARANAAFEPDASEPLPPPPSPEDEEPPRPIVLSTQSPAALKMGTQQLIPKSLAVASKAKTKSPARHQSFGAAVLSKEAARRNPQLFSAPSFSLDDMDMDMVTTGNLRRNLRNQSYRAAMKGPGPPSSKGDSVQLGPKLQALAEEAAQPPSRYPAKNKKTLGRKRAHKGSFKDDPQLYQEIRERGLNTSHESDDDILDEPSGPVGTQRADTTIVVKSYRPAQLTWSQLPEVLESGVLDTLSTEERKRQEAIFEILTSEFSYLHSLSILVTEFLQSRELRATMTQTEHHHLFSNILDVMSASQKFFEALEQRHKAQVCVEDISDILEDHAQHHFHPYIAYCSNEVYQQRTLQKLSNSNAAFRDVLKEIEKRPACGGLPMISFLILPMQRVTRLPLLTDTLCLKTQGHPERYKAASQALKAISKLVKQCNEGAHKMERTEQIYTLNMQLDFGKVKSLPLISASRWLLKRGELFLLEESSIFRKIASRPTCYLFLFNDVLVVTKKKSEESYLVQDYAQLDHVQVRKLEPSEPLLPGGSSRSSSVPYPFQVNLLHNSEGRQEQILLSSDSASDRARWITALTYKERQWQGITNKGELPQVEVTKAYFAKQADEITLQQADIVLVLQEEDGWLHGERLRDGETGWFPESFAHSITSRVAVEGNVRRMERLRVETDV

[2] = molecular target: T2, FLAG-tagged Ephexin4^E295A (murine, UniProt Q3U5C8 1-713, E295A); assay: cell-based or functional assay
T2 sequence (looked up): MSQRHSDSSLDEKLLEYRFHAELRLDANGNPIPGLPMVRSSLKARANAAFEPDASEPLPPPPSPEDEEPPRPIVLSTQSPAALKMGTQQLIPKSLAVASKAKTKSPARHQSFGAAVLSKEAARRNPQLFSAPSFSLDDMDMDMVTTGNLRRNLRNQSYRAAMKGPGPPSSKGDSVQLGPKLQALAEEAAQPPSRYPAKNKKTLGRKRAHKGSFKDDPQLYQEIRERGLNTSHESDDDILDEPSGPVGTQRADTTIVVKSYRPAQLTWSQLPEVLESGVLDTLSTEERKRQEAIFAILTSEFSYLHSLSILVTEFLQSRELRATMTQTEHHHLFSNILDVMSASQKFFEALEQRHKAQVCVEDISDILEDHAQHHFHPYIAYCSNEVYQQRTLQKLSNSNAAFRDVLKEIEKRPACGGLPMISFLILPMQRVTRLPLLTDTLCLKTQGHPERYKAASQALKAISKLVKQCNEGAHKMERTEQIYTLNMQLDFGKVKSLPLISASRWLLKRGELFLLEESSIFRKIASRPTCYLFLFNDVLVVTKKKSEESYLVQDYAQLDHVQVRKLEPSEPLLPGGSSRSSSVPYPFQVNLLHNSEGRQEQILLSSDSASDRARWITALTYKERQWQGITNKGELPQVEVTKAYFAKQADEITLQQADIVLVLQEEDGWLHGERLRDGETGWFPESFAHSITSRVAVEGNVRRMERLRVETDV

level of active (GTP-bound) RhoG precipitated by GST-Elmo2^N-term from 293T cells expressing wild-type Ephexin4, against control cells (Figure 3a,b) [1]: 1.6 fold
level of active endogenous RhoG (293T) precipitated by GST-Elmo2^N-term from cells expressing wild-type Ephexin4 (Figure 3c,d) [1]: 1.6 fold
level of active (GTP-bound) RhoG precipitated by GST-Elmo2^N-term from 293T cells expressing Ephexin4^E295A, against control cells (Figure 3a,b) [2]: 2.9 fold
level of active endogenous RhoG (293T) precipitated by GST-Elmo2^N-term from cells expressing Ephexin4^E295A (Figure 3c,d) [2]: 2.6 fold
B1: GFP-RhoG (natural protein)
chain: not shown
